Source: patent publication US20220265819A1 (GEN2 NEUROSCIENCE, published 2022)
Changes are numbered by the printed parent chain. One block for each binder: values may come before it.

Legend:
Bovine serum albumin = molecular target: T1, Bovine serum albumin (bovine, UniProt P02769 25-607); assay: ELISA on 1% BSA, HEK supernatant, anti-human IgG-HRP, n=1
T1 construct: Negative control antigen in ELISA; also called BSA
Protocol: Antigen was removed from wells and the plates were then blocked for 1 hour at RT with 5% dried milk in 1×TBS. Blocking solution was removed, HEK293 cell supernatant (1:100 in 1% BSA/1×TBS) was added to relevant wells, and plates were incubated for 1 hour at RT with gentle shaking. Plates were then washed four times with TBS/0.1% Tween (TBST). Goat-anti-human IgG-HRP antibody (ThermoFisher Scientific, Waltham, Mass. USA), diluted 1:2000 in 5% milk/TBS, was added to each well and plates were incubated for 1 hour at RT with gentle shaking before being washed four times with TBST. 3,3′,5,5′-tetramethylbenzidine (TMB) ELISA solution was added to each well and plates were incubated for 15 mins at RT. An equal volume of 1 M sulfuric acid was added to each well and OD was measured at 450 nm.

[1] = molecular target: T2, full length recombinant human 2N4R tau (amino acids 1-441) (human, UniProt P10636 1-758); assay: SPR Biacore SCK, IgG on Protein A, tau analyte
T2 construct: Bought (rPeptide); recombinant, non-phosphorylated; also called recombinant tau
Protocol: 23.5 Assessment of antibody binding to tau (Biacore SCK analysis): Binding of anti-tau hIgG1 to full length recombinant 2N4R tau (Rpeptide; SEQ ID NO: 2) was assessed using the Biacore T200 (GE Healthcare, Chicago, Ill., USA) running Biacore T200 Evaluation Software V2.0.1. hIgG1 were immobilised on a Protein A capture sensor chip in running buffer (HBS-EP+ buffer containing 1 mg/mL BSA) at 25° C. captured to ˜50 RU at 10 μL/min. For single-cycle kinetics experiments, recombinant 2N4R tau was flowed at concentrations ranging from 5 nM to 40 nM (2-fold dilutions) with an association time of 150 s and a dissociation time of 200 s. Curves were compared to a reference cell that was mock immobilized (no antibody present).
Data were analysed using Langmuir (1:1) binding analysis, describing a 1:1 interaction at the surface: […]

T2 sequence (P10636 other isoform, or with tags, fused parts or gaps limits assumed): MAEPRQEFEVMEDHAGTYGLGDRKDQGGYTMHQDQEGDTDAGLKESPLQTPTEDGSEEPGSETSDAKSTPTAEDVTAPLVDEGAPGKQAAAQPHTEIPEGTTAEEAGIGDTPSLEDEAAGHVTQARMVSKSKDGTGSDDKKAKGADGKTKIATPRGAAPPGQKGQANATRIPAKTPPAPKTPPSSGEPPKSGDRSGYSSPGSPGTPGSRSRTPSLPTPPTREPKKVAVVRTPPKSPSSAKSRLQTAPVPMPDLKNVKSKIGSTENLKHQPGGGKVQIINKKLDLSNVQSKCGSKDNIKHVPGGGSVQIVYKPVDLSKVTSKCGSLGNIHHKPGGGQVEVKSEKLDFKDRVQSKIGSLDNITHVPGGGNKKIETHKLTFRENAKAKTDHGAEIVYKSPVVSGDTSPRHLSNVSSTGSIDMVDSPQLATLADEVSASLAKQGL
T1 sequence (P02769 25-607 limits assumed): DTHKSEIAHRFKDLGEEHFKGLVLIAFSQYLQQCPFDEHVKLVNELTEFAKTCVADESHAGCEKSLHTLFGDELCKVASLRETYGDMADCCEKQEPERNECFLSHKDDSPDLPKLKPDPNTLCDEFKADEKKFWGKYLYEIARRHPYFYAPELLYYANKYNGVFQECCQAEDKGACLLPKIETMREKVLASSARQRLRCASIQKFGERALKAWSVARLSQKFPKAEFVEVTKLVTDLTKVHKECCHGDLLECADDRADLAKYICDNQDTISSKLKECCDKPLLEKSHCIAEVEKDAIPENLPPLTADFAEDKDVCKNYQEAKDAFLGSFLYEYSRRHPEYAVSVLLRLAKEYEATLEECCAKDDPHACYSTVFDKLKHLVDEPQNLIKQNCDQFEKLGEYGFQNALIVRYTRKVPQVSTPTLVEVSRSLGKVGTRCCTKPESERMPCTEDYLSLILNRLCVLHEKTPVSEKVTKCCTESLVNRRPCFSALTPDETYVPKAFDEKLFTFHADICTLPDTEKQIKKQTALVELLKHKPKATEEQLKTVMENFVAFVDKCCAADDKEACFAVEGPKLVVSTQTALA

B2: Clone 23 (VH3Vκ2), humanised variant of clone #28, human IgG1 (antibody, V domains shown)
VH: QVQLQESGPGLVKPSETLSLTCTVSGFSLNNYDMSWVRQAPGKGLEWIGTVSTTYRRYYASWAKGRFTISKTSSTTVDLQMTSLTAEDTATYFCAASGIWGRGTLVTVSS
VL: AQVLTQSPSTLSASVGDRVTITCQSSQRVYSNYLAWYQQKPGQPPKRLIFLASTLESGVPSRFSGSGSGTEFTLTISSLQPDDFATYYCAGTYTGSIWAFGGGTKVEIK
notes: also called VH3VK2
- binding result (Bovine serum albumin): no binding (tested: supernatant 1:100)
- Kd [1]: 51.3 nM
- Relative KD [1]: 1.13 fold vs VH0VK0
- koff [1]: 0.00253 s⁻¹
- kon [1]: 49400 M⁻¹ s⁻¹

B3: Clone 15 (VH1Vκ2), humanised variant of clone #28, human IgG1 (antibody, V domains shown)
VH: QSLQESGGGLVKPSETLSLTCTVSGFSLNNYDMSWVRQAPGKGLEWIGTVSTTYRRYYASWAKGRFTISKTSSTTVDLKMTSLTAEDTATYFCAASGIWGRGTLVTVSS
VL: B2 VL
notes: also called VH1VK2
- binding result (Bovine serum albumin): no binding (tested: supernatant 1:100)
- Kd [1]: 44.1 nM
- Relative KD [1]: 0.97 fold vs VH0VK0
- koff [1]: 0.00294 s⁻¹
- kon [1]: 66800 M⁻¹ s⁻¹

B4: Clone 34 (VH6Vκ1), humanised variant of clone #28, human IgG1 (antibody, V domains shown)
VH: QVQLQESGPGLVKPSETLSLTCTVSGFSLNNYDMSWVRQAPGKGLEWIGTVSTTYRRYYADSVKGRFTISRDNSKNTLDLQMTSLTAEDTATYFCAASGIWGRGTLVTVSS
VL: B2 VL with P8T, T10P, P81C, K105E, E107V
notes: also called VH6VK1
- binding result (Bovine serum albumin): no binding (tested: supernatant 1:100)
- Kd [1]: 141 nM
- Relative KD [1]: 3.11 fold vs VH0VK0
- koff [1]: 0.00525 s⁻¹
- kon [1]: 37300 M⁻¹ s⁻¹

B5: Clone 17 (VH1Vκ5), humanised variant of clone #28, human IgG1 (antibody, V domains shown)
VH: B3 VH
VL: B2 VL with A1D, Q2I, V3Q, L4M, Y30S, N32S
notes: also called VH1VK5
- binding result (Bovine serum albumin): no binding (tested: supernatant 1:100)
- Kd [1]: 41.1 nM
- Relative KD [1]: 0.91 fold vs VH0VK0
- koff [1]: 0.00428 s⁻¹
- kon [1]: 104000 M⁻¹ s⁻¹

B6: Clone 18 (VH2Vκ1), humanised variant of clone #28, human IgG1 (antibody, V domains shown)
VH: B3 VH with G8P, K79Q
VL: B2 VL with P8T, T10P, P81C, K105E, E107V
notes: also called VH2VK1
- binding result (Bovine serum albumin): no binding (tested: supernatant 1:100)
- Kd [1]: 49.2 nM
- Relative KD [1]: 1.09 fold vs VH0VK0
- koff [1]: 0.0033 s⁻¹
- kon [1]: 67100 M⁻¹ s⁻¹

B9: Clone 19 (VH2Vκ2), humanised variant of clone #28, human IgG1 (antibody, V domains shown)
VH: B3 VH with G8P, K79Q
VL: B2 VL
notes: also called VH2VK2
- binding result (Bovine serum albumin): no binding (tested: supernatant 1:100)
- Kd [1]: 67.3 nM
- Relative KD [1]: 1.49 fold vs VH0VK0
- koff [1]: 0.00324 s⁻¹
- kon [1]: 48100 M⁻¹ s⁻¹

B11: Clone 25 (VH3Vκ5), humanised variant of clone #28, human IgG1 (antibody, V domains shown)
VH: B2 VH
VL: B2 VL with A1D, Q2I, V3Q, L4M, Y30S, N32S
notes: also called VH3VK5
- binding result (Bovine serum albumin): no binding (tested: supernatant 1:100)
- Kd [1]: 38.9 nM
- Relative KD [1]: 0.86 fold vs VH0VK0
- koff [1]: 0.00316 s⁻¹
- kon [1]: 81300 M⁻¹ s⁻¹

B12: Clone 37 (VH6Vκ5), humanised variant of clone #28, human IgG1 (antibody, V domains shown)
VH: B4 VH
VL: B2 VL with A1D, Q2I, V3Q, L4M, Y30S, N32S
notes: also called VH6VK5
- binding result (Bovine serum albumin): no binding (tested: supernatant 1:100)
- Kd [1]: 123 nM
- Relative KD [1]: 2.72 fold vs VH0VK0
- koff [1]: 0.00544 s⁻¹
- kon [1]: 44300 M⁻¹ s⁻¹

B13: Clone 33 (VH5Vκ5), humanised variant of clone #28, human IgG1 (antibody, V domains shown)
VH: B4 VH with D61S, S62W, V63A
VL: B2 VL with A1D, Q2I, V3Q, L4M, Y30S, N32S
notes: also called VH5VK5
- binding result (Bovine serum albumin): no binding (tested: supernatant 1:100)
- Kd [1]: 60.6 nM
- Relative KD [1]: 1.34 fold vs VH0VK0
- koff [1]: 0.00354 s⁻¹
- kon [1]: 58400 M⁻¹ s⁻¹

B17: Clone 35 (VH6Vκ2), humanised variant of clone #28, human IgG1 (antibody, V domains shown)
VH: B4 VH
VL: B2 VL
notes: also called VH6VK2
- binding result (Bovine serum albumin): no binding (tested: supernatant 1:100)
- Kd [1]: 222 nM
- Relative KD [1]: 4.9 fold vs VH0VK0
- koff [1]: 0.00533 s⁻¹
- kon [1]: 24000 M⁻¹ s⁻¹

B18: Clone 22 (VH3Vκ1), humanised variant of clone #28, human IgG1 (antibody, V domains shown)
VH: B2 VH
VL: B2 VL with P8T, T10P, P81C, K105E, E107V
notes: also called VH3VK1
- binding result (Bovine serum albumin): no binding (tested: supernatant 1:100)
- Kd [1]: 43.9 nM
- Relative KD [1]: 0.97 fold vs VH0VK0
- koff [1]: 0.00249 s⁻¹
- kon [1]: 56700 M⁻¹ s⁻¹

Continued by falling Kd [1], values first:

- binding result (Bovine serum albumin): no binding (tested: supernatant 1:100)
- Kd [1]: 123 nM
- Relative KD [1]: 2.72 fold vs VH0VK0
- koff [1]: 0.00406 s⁻¹
- kon [1]: 33100 M⁻¹ s⁻¹
B15: Clone 36 (VH6Vκ4), humanised variant of clone #28, human IgG1 (antibody, V domains shown)
VH: B4 VH
VL: B2 VL with A1D, Q2I, V3Q, L4M
notes: also called VH6VK4

- binding result (Bovine serum albumin): no binding (tested: supernatant 1:100)
- Kd [1]: 114 nM
- Relative KD [1]: 2.52 fold vs VH0VK0
- koff [1]: 0.00409 s⁻¹
- kon [1]: 35900 M⁻¹ s⁻¹
B7: Clone 29 (VH4Vκ5), humanised variant of clone #28, human IgG1 (antibody, V domains shown)
VH: B4 VH with D61S, S62W, V63A, R71K, N73T, K75S, N76T, L78V
VL: B2 VL with A1D, Q2I, V3Q, L4M, Y30S, N32S
notes: also called VH4VK5

- binding result (Bovine serum albumin): no binding (tested: supernatant 1:100)
- Kd [1]: 75.7 nM
- Relative KD [1]: 1.67 fold vs VH0VK0
- koff [1]: 0.00351 s⁻¹
- kon [1]: 46300 M⁻¹ s⁻¹
B8: Clone 30 (VH5Vκ1), humanised variant of clone #28, human IgG1 (antibody, V domains shown)
VH: B4 VH with D61S, S62W, V63A
VL: B2 VL with P8T, T10P, P81C, K105E, E107V
notes: also called VH5VK1

- binding result (Bovine serum albumin): no binding (tested: supernatant 1:100)
- Kd [1]: 57.6 nM
- Relative KD [1]: 1.27 fold vs VH0VK0
- koff [1]: 0.00336 s⁻¹
- kon [1]: 58300 M⁻¹ s⁻¹
B1: Clone 26 (VH4Vκ1), humanised variant of clone #28, human IgG1 (antibody, V domains shown)
VH: B4 VH with D61S, S62W, V63A, R71K, N73T, K75S, N76T, L78V
VL: B2 VL with P8T, T10P, P81C, K105E, E107V
notes: also called VH4VK1

- binding result (Bovine serum albumin): no binding (tested: supernatant 1:100)
- Kd [1]: 38 nM
- Relative KD [1]: 0.84 fold vs VH0VK0
- koff [1]: 0.00234 s⁻¹
- kon [1]: 61500 M⁻¹ s⁻¹
B16: Clone 20 (VH2Vκ4), humanised variant of clone #28, human IgG1 (antibody, V domains shown)
VH: B3 VH with G8P, K79Q
VL: B2 VL with A1D, Q2I, V3Q, L4M
notes: also called VH2VK4

- binding result (Bovine serum albumin): no binding (tested: supernatant 1:100)
- Kd [1]: 36.6 nM
- Relative KD [1]: 0.81 fold vs VH0VK0
- koff [1]: 0.00308 s⁻¹
- kon [1]: 84000 M⁻¹ s⁻¹
B14: Clone 14 (VH1Vκ1), humanised variant of clone #28, human IgG1 (antibody, V domains shown)
VH: B3 VH
VL: B2 VL with P8T, T10P, P81C, K105E, E107V
notes: also called VH1VK1

- binding result (Bovine serum albumin): no binding (tested: supernatant 1:100)
- Kd [1]: 31.2 nM
- Relative KD [1]: 0.69 fold vs VH0VK0
- koff [1]: 0.00207 s⁻¹
- kon [1]: 66300 M⁻¹ s⁻¹
B10: Clone 16 (VH1Vκ4), humanised variant of clone #28, human IgG1 (antibody, V domains shown)
VH: B3 VH
VL: B2 VL with A1D, Q2I, V3Q, L4M
notes: also called VH1VK4
